According to publication PMC3463739 (Protein expression and purification, 2012):
Like-named read-outs stand apart in the source and are kept apart here.

B1: nebulin SH3 (domain or fragment, human, UniProt P20929 8466-8525, looked up)
chain: TAGKIFRAMYDYMAADADEVSFKDGDAIINVQAIDEGWMYGTVQRTGRTGMLPANYVEAI
B2: [PPE172_(15)], recombinant polyprotein of 15 tandem repeats of the human titin exon 172 PEVK module (other)
chain: PEPPKEVVPEKKAPVAPPKKPEVPPVKVPEPPKEVVPEKKAPVAPPKKPEVPPVKVPEPPKEVVPEKKAPVAPPKKPEVPPVKVPEPPKEVVPEKKAPVAPPKKPEVPPVKVPEPPKEVVPEKKAPVAPPKKPEVPPVKVPEPPKEVVPEKKAPVAPPKKPEVPPVKVPEPPKEVVPEKKAPVAPPKKPEVPPVKVPEPPKEVVPEKKAPVAPPKKPEVPPVKVPEPPKEVVPEKKAPVAPPKKPEVPPVKVPEPPKEVVPEKKAPVAPPKKPEVPPVKVPEPPKEVVPEKKAPVAPPKKPEVPPVKVPEPPKEVVPEKKAPVAPPKKPEVPPVKVPEPPKEVVPEKKAPVAPPKKPEVPPVKVPEPPKEVVPEKKAPVAPPKKPEVPPVKVPEPPKEVVPEKKAPVAPPKKPEVPPVKV

Columns and labels:
[1] = target: B2; assay: ELISA
[2] = target: B2; assay: ELISA
nebulin SH3 [3] = target: B1; assay: ELISA
nebulin SH3 [4] = target: B1; assay: ELISA; remark: listed apart in the source
nebulin SH3 [5] = target: B1; assay: SPR

KD in the presence of 50 μg/ml RT11 [1] [µM] | KD in the presence of 50 μg/ml RT11 [2] [µM] | Kd (nebulin SH3 [3]) [µM] | Kd (nebulin SH3 [4]) [µM] | Kd (nebulin SH3 [5]) [µM] | Binder
9.69 | 471 |  |  |  | B1
 |  | 7 | 23 | 340 | B2
